± gives the half width of the 95% confidence interval.
assay: folding stability dG unfold (combined trypsin and chymotrypsin); higher = more stable
Description: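 Folding stability of de novo designed mini-proteins (<80 aa, no Cys; designed by TrROS, TrMRF, ProteinMPNN and the joint model) was measured by cDNA display proteolysis with trypsin and chymotrypsin. Each protease was used at 11 concentrations in a threefold dilution series plus a no-protease condition. K50 was inferred by Bayesian fitting of sequencing counts, and dG unfold was derived against a sequence-predicted unfolded-state K50 (Tsuboyama et al. method). Sequences shown include variable-length N-terminal GS-type padding (SAGGSAGG...) inside a display construct carrying a PA tag. Rows were kept only if the AF2 dimer inter-PAE was >15, to exclude likely homo-oligomers.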

Sequence	folding stability dG unfold [kcal/mol]
SAGGSAGGSASPKQVPITIEIQTPNKPRKITFPIPEGQEGGPEEIMDRLADDGNYKIDRITSAGGSAGGSAG [r3_31_TrROS]	< -1
SAGGSAGGSAGGMEVREVVEETPETLVVRTVRFYPDGSVEVLEEERIPLPPPELTPRNLLSAGGSAGGSAGG [r11_843_JUSTAS]	< -1
SAGGSAGGSAGGSPPIRIRFPNNGKTIPIDGPDDLKDYLRDNGLPIDPDDLDKIDEVEWSAGGSAGGSAGGS [r4_104_TrROS]	< -1
SAGGSAGGNWETIPIKGDPKQMVDEAREENPRNVRIYNPNNGKKHEFPPGLPLDDFPGMYVQRRSAGGSAGG [r6_858_TrROS]	< -1
SAGGSAGGSAGSTEIGVYKLEGTDKVLVLAKKPNGSEVPVEFPASVTPEEAVEKAKKVVSSAGGSAGGSAGG [r17_161_TrMRF]	< -1
SAGGPVSEEIVTEKKTLEEDPKNGNTYSEIIMKTPNETIKVKGVKHPSGSTTYTVYTPNSKIATVNVSSAGG [r13_146_JUSTAS]	< -1
SAGGSAGGSMKKLLVERKPDGTVTVVDVLPADRSAEELPPEELTSFTLLPFESLEEALKKAAASAGGSAGGS [r12_452_JUSTAS]	< -1
SAGGSAGGSAGGKSPLEKLRELAKKNPNVTVYVEKTGKEVKVPSIEELLEKGYKIVKIEKSAGGSAGGSAGG [r7_504_TrROS_Hall]	< -1
SAGGSAGGSAGWRVRVSFPNGNKIEIDEIPPDDEGMTPDQLADEIQKEFPGNGIEVEPVPSAGGSAGGSAGG [r17_42_TrROS]	< -1
SAGGSAGGSPKPMKLRFRNPDNGMPFEVNVDKIDPDGQLRVEIEQPNGKTRKIDNIDNVEIEKSAGGSAGGS [r12_118_TrROS]	< -1
SAGGSAGGSSHMEVEKAAKELSSEVGFEKSSNGPDSVSFTFDPAKPELVRALAEKFGIDLKVESAGGSAGGS [r12_74_JUSTAS]	< -1
SAGGSAGGSMNEVSEEEAIAEAVAKHAPDEPVTYELKDNKKIVVNVNGADPANVSIEVIPIKNSAGGSAGGS [r12_648_JUSTAS]	< -1
SAGGSAGGSAGNVITFPDGYYIRVTGPGPREIPIPPENAEDFVDEISKLPGIQDIEIQPRSAGGSAGGSAGG [r11_587_TrROS]	< -1
SAGDALKEAAKNGKPAELPIRFHFYQIKEPERDKDGGPRYKMKPIHTVEFPIRVDKVDPGNGDIKIDMPSAG [r5_5_TrROS]	< -1
SAGGSAGGSAGGSMPTATLVEKEKDPVEDIITYKINTPPDKTEIIKYSPENPISESDIISAGGSAGGSAGGS [r4_481_JUSTAS]	< -1
SAGGSAGGSAGGEEERMWMFSVRVPDKPVMFPFDDLEKLAEEKGVPVKIEWARMPADDLKSAGGSAGGSAGG [r7_185_TrROS]	< -1
SAGGSAGGSVVIPMEDLSNMPWERIRDQIKKSPDPVTITMPNPEGMKRAQDLFKEEGVPITVVSAGGSAGGS [r12_97_TrROS]	< -1
SAGGSAGGSAGWEMLRMIKENAKPGKPTTITIHPNFPMEEINKELIEDAPIDDVEYTPMPSAGGSAGGSAGG [r11_524_TrROS]	< -1
SAGGSAGGSAKIIVWGRTPEGAKEKAKEFADNIQKEMQENGMPPKNIKIPIEIFDPEAMPDSAGGSAGGSAG [r3_249_TrROS]	< -1
SAGGSAGGSAGGMKPYRIGNGAWLYVNPDDSVRIYNPGNGQKRTIPIGKPQPIRLPKNAISAGGSAGGSAGG [r7_299_TrROS]	< -1

Sequence	folding stability dG unfold [kcal/mol]
SAGGSAGGSGEFLSDLPPDWEVSTEPLPSDTVRYTVTAPTGPVSAVSLPVGDREVRTSATPPVSAGGSAGGS [r20_50_JUSTAS]	< -1
SSPVVEAIEAEAAARGLPVEVSVSPDENGNPVVPVRVLTPEVLAAGEPRLAERVRPVTTDGRTVTVRVVASA [r9_489_JUSTAS]	< -1
SMTIEELLKKHPNLSAEELAKLIADELKKKLPPGAKITVTVEEKDGKLVLKVEVEVNGKKITIELEIELKSA [r9_805_TrROS_Hall]	> 6
SAGGKITIEMPEDGMYRITIRNPNKGEPVSEIPIPANQIQELAKENGEPMPIEDIVRKLGYPIEIERYSAGG [r13_836_TrROS]	< -1
SAGGSAGGSAGGPTVKVKKVELAPETGYAVVHFEVELEGEPKVVEGELVLPLPPPLDAPSAGGSAGGSAGGS [r10_541_TrMRF]	< -1
SAGGSAGGSAGGAKELADRMRDAGYEPEADPDSGKIEVRHPNPNGKRMKREINIPPEDISAGGSAGGSAGGS [r10_1173_TrROS]	< -1
SAGGPKIDVEKEKSPERGRRKIEIRWPGSGQEMDIFLPDDDPDKIAKALQNAPFGSFHEAIREALRDSAGGS [r8_484_TrROS]	< -1
SAGGSAGGSAGGDPNIEKTYKIKVAKGDKNGKIIKVIEKEIKVKTPEEAEKFAKELAKSSAGGSAGGSAGGS [r10_57_TrMRF]	< -1
SAGGSAGGGNTPRPRPRSVVTKLNVSPDTVPPEELKAKHPDIEVSYSPNSLTARVPVNGELVESSAGGSAGG [r6_739_JUSTAS]	< -1
SAGGSARKITIDVQPHPNGEFPINVKIRGPNGEPKKERPFNFDSPQAAKNKLKDFADKNGYEVEIWSAGGSA [r15_242_TrROS]	< -1
SAGGSAGGSAMDPDDQLPTIEEIAKKFGMDATIEPRRNPNGMPYRTATVQNNGGPVGEISIPSAGGSAGGSA [r18_369_TrROS]	< -1
SAGMQTKTLAETKENGKITVTTLTTTESGEETTVTETIEVGPVPIPPLTVEVRLRPDGRLEFEYHIPLSAGG [r19_172_JUSTAS]	-0.861 ± 0.51
SAGGSAGGSRYFIRIELRHPDDGQEYEPTIPINPGQTEEQVKQEIREHHPGADIKDIEIYPMDSAGGSAGGS [r12_738_TrROS]	< -1
SPPYRATVEMEAPNGEPIGEEEFPIKPGKNLMFMMPAPARVRIEIEDPDEGEPREQEYDPRSGMLHFPLKSA [r9_272_TrROS]	< -1
SAGGPGPPPLEPVVVPVDDGVAVFTRSPDGSLHVEIGPRSGPVVASATAPLPEDSELTVDAVVLPEELSAGG [r13_584_TrMRF]	< -1
SAGGSAGGSAGKTISLKELMKNGNPEKALEFLKKIKEANPKPKIKLIEIDENFDAKYDINSAGGSAGGSAGG [r11_365_TrMRF]	< -1
SAGGSAGGSAGGSMITTEEFTDKEEAVEKAKKTPGVEKVEVKTTPSDKYVVIIYKPPLKSAGGSAGGSAGGS [r4_1_JUSTAS]	< -1
SAGGMIIDDPDALLDAIKENPNTPLVFLVPTDPATGTVDPAVIDAVVEPGFPVERDPDGYVRFIFPKSAGGS [r16_335_TrMRF]	< -1
SAGGSAGGSAGVDFFKAPDGSEYAVVVARGKDADIPVLTRVDDGNDALAERFGLPKEKIGSAGGSAGGSAGG [r11_1039_TrMRF]	< -1
SAGGSAGGSAGTLDELKNAPPGEERTVRVDFQIYEMRPDPNGKPEMEPVSPMRMEITFKPSAGGSAGGSAGG [r11_36_TrROS]	< -1

Sequence	folding stability dG unfold [kcal/mol]
SAGGSAGGMEKADKLAAALVEKGIPFHVKKVEVFEVRIPPADKELGEVVLPAVKIGLDDKVLLASAGGSAGG [r6_686_TrMRF]	< -1
SRFRISVQHDGKPIDRAEVQDAIHDLMQESGRPITFEELADELAERPNYSVSIERWNPPGKPKGTRTIRVSA [r9_1045_TrROS]	< -1
SAGGSAGGAVRVDDSEIGPDRAAPLPGNRSLEVRPDSVTVTTTDPSTNTPTTTTLPYSEVERLLSAGGSAGG [r6_942_JUSTAS]	< -1
SAGGSAGGSAGGSGLKELREEAAKGKKFIVRTTVPLKEYEFDLKDLDKFEDHDIIVEPRSAGGSAGGSAGGS [r4_157_TrMRF]	< -1
SAGGSAGGSAGWKISVRMPDNGKPRRVPIEIPFDADDPQYFKEIANDLANDGIREVEIYPSAGGSAGGSAGG [r11_196_TrROS]	< -1
SAGGDIEVEPTDNMPQVEIRDPEGKERKIVMPPNPNGQYNIQVHNPDDGKKKTFPVRSVDDALEWLKSAGGS [r8_230_TrROS]	< -1
SAGGSAGGSAGGSSTVLETEVTPTSEPRLLTKTLIEEFPPDNPEKPVLSVKETVLPVLLSAGGSAGGSAGGS [r4_265_JUSTAS]	< -1
SAGGSAPFQIKEPDGKTETFPMNDIPPDLIKNFPDVKITMPGGQERKIPPGQKLSPGGMMTIQIPKSAGGSA [r15_733_TrROS]	< -1
GEVLVAKIELKVKKKLPEKPEEVEEKLELEFVAPIDNPEALEKAEEIAKKLAEEIGATEVKIKVEPYILPES [r1_346_TrMRF]	< -1
SASPLVPVETEVLEEETLPDGTLRILTRRTVGDTTILDVRDRGPGGEILRESSSVDTSSNTTTRDVSVLSAG [r14_189_JUSTAS]	< -1
SAGGSAGGSGKKYILRFKNPEKARSFAKPLGLKVKPGDDLPVDDPEKFLKSLPLLKDIVVEDKSAGGSAGGS [r12_571_TrMRF]	< -1
SAGGMVVITTDDPDDLERLAEAVEELKRALAEAGATEPGVKVDVVIEKRPTPDGTLRYVAPVFVGLPSAGGS [r16_591_TrMRF]	< -1
SAGGSAGGSSWDEVREIAREARKEGFPMVSIRYDDKNTHQINFEDGPIEPLPNPDNVKIEIMRSAGGSAGGS [r20_44_TrROS]	< -1
SAGSASPVVLKLTDPSSDKTYLVEVEVPEEEATWTLRDPSNGKEVEKVKMTLEELYAELKKKGLNPEPLSAG [r5_291_JUSTAS]	< -1
SAGGSAGGMEAVLEALKELPPDEEKVITVPHPDDPRYVVRFTLRRKGDEIEIPVEKKPIPPGLASAGGSAGG [r6_392_TrMRF]	< -1
SAGGSAGGSLRPGEPFKIYSPNGEKFPFKIESVEVDPDGEIPLTITNPNGKPIGPFPYRIKPLSAGGSAGGS [r12_735_TrROS]	< -1
SAGGSAGGWIEIDPNDGKLEILYPPGMNPDELTDFIEEFGFPFKPKSVEYNPDNGMRKVEFKFKSAGGSAGG [r6_396_TrROS]	< -1
SAGGSAGGSAGTVVVITPKNGEKFVFEAESSELPKIKEAFPELKIKDIDPGKGFIHVEVDSAGGSAGGSAGG [r17_22_TrMRF]	< -1
